# Results as given in US20260234247A1 (published 2026).
# B1: LK-RB1-29 (antibody, human IgG4 S228P, kappa, V domains shown)
# VH: QVQLKESGPGLVAPSQNLAITCTVSGFSLTNSGVSWVRQSPGKGLEWLGIIWGDGNTNYHSALISRLSISKDNSKSQVFLKLNSLQTDDTGTYYCAKPNWDYYALDYWGQGTSVTVSS
# VL: DIQMTQTASSLFASLGDRVTISCRASQDISNYLNWYQQKPDGSIKLLISYTSRLHSGVPSRFSGSGSGTDYSLSISNLEQEDIATYFCQQGISLPCTFGGGTKLEVNR
# B2: LK-RB1-23 (antibody, human IgG4 S228P, kappa, V domains shown)
# VH: QVQLQQTGAELVRPGSSVKLSCKASGYTFTNYWMDWVKQRPGQGLEWIGNIHPFGNETHYNQKFKDKATLTVDKSSSTAYMQLSSLTSEDSAVYYCARGLLLYFDVWGTGTTVTVSS
# VL: DIQMTQSPASQSVSVGETVTITCRASENIYSNLAWYQQKQGKSPQLLVYGATNLADGVSLRFSGSGSGTQYSLKINSLQSEDFGSYYCQHFWGIPWTFGGGTKLEIKR
# B3: LK-RB1-27 (antibody, human IgG4 S228P, kappa, V domains shown)
# VH: QVQLQQSGPELVKPGASVRMSCKASGYTFTSHYIHWMKQRPGQGLEWIGWIYPGDGHTKYHEKFKDRATLTADTSSITAYMRLSSLTSEDSAIYYCVYYSDSWFPYWGQGTLVTVSA
# VL: DIQMTQSPASLSVSVGETVTITCRASENIYSNLAWYQQKQGKSPHLLVYAATNLADGVPSRFSGSGSGTQYSLKINSLQSEDFGNYYCQHFWGSPWTFGGGTKLEIKR
# B4: LK-RB1-28 (antibody, human IgG4 S228P, kappa, V domains shown)
# VH: QVQLQQSGPELVKPGTSVKMSCKASGYTFTSHYIHWMKQRPGQGLDWIGWIYPGDGHTKYHEKFKGKATLTADTSSITAYMQLSLLTSEDSAVYYCVYYSDSWFPYWGQGTLVTVSA
# VL: DIQMTQSPASLSVSVGETVTITCRASENIYSNLAWYQQKQGKSPQLLVYAATNLADGVPSRFSGSGSGTQYSLKINSLQSEDFGNYFCQHFWGSPWTFGGGTKLEIKR
# B5: LK-RB1-46 (antibody, human IgG4 S228P, kappa, V domains shown)
# VH: EVQLQQSGPELVKPGASVKISCKTSGYTFTDYYMNWVKQSHGKSLEWIGDIYPINGDISYNQKFKGKATLTVDKSSSTVYMEIRSLTYEDSAVYYCARLAQTTSGGFDYWGQGTTLTVSS
# VL: DIVLTQSPTSLAVSLGQRAIISCKASQSVSFAGTSLMHWYQQKPGQQPKLLIYRASNLKAGVPTRFSGSGSRTDFTLNIHPVEEDDAATYYCQQSREYPMYTFGGGTKLEIKR
# B6: LK-RB1-32 (antibody, human IgG4 S228P, kappa, V domains shown)
# VH: QVQLQQSGAELAKPGASVKLSCTASGYTFTTYLMHWVKQRPAQGLEWIGYINPSNDFTKYNQKFKDKATLTADTSSSTAYMQLNSLTFEDSAVYYCARNSDYDPSYWGQGTTLTVSS
# VL: DIQMTQSPASLSVSVGETVTITCRASENIYSSLAWYQQKQGKSPQLLVYAATNLADGVPSRFSGSGSGTQYSLKINSLQSEDFGNYYCQHFWGTWAFGGGTKLEIKR
# B7: LK-RB1-35 (antibody, human IgG4 S228P, kappa, V domains shown)
# VH: DVQLQESGPGLEKPSQSLSLTCSVTGYSITRGYQWNWIRQFPGNKLEWMGYISYDGSNNYNPSLKNRISITRDASKNQFFLKLNSVTTEDTATYYCARRSYNSIDYWGQGTTLTVSS
# VL: DIVLTQSPATLSVTPGDSVSLSCRASQSISSNLHWYQQKSHESPRLLIKYASQSISGIPSRFSGSGSGTDFTLSINSVETEDFGMYFCQQSNSWPLTFGAGTKLELKR
# B8: LK-RB1-38 (antibody, human IgG4 S228P, kappa, V domains shown)
# VH: DVQLQESGPGLVQPSQSLSLTCSVTGYSITSGYQWNWIRQLPGNKLEWMAYISFDGSNNYNPSLKNRISITRDTSKNQFFLKLKSVTTEDTATYYCARRDYDGVAYWGQGTLVTVSA
# VL: EIVLTQSPATLSVTPGDRVSLSCRASQNISNYLHWYQQKSHGSPRLIIKYASQSISGIPSRFSGSGSGTDFTLSINSVETEDFGMYFCQQSNSWPLTFGAGTKLELKR
# B9: LK-RB1-36 (antibody, human IgG4 S228P, kappa, V domains shown)
# VH: DVQLQESGPGLEKPSQSLSLTCSVTGYSITRGYQWNWIRQFPGNKLEWMGYISYDGSNNYNPSLKNRISIIRDTSKNQFFLKLNSVTTEDTATYYCARRSYNSIDYWGQGTTLTVSS
# VL: DIVLTQSPATLSVTPGDSVSLSCRASQSISNNLHWYQQKSHESPRLLIKYASQSISGIPSRFSGSGSGTDFTLSINSVETEDFGMYFCQQSNSWPLTFGAGTKLELKR
# B10: LK-RB1-25 (antibody, human IgG4 S228P, kappa, V domains shown)
# VH: QIQLVQSGPELKKPGETVKISCKASGYTFTSYGMNWMKQAPGEGLKWMGWINTYSGVPTYADDFKGRFAFSLETSATTVYLQINNLKNEDKATYFCARRGRDSVVGHFDVWGTGTTVTVSS
# VL: DIVMTQSHKFMSTSVGDRVSITCKASQDVNTAVAWYQQKPGQSPKLLIYWASTRHTGVPDRFTGSGSGTDFTLTISSVQAEDLALYYCQQHYTIPFTFGSGTKLEIKR
# B11: LK-RB1-34 (antibody, human IgG4 S228P, kappa, V domains shown)
# VH: QVQLQQSGAELVKPGASVKLSCKASGYTFTEYTIHWVKQRSGQGLEWIGWFYPGSDSIKYNEKFKDKATLTADKSSSTVYMELSRLTSEDSAVYFCSRHEGPYFTSQYYFDYWGQGTTLTVSS
# VL: DILLTQSPAILSVSPGERVSFSCRASRYIGTSIHWYQQRTNGSPRLLIKYASESISGIPSRFSGSGSGTDFTLSINSVESEDIADYYCQQSNTWPLTFGAGTKLELKR
# B12: LK-RB1-37 (antibody, human IgG4 S228P, kappa, V domains shown)
# VH: QVQLQQPGAELVKPGASVKLSCKASGYTFTSYWMHWVKQRPGRGPEWIGRIDPNSGYARYNEKFKNKATLTADKPSSTADMHLSSLTSEDSAVYYCTRSFITTAEWFFDVWGTGTTVTVSS
# VL: DILLTQSPAILSVSPGERVSFSCRASQSIGTSIHWYQQRRNGSPRLLIKYTSESISGIPSRFSGSGSGTDFTLSINSVESEDIADYYCQQSNSWPHTFGGGTKLELKR
# B13: LK-RB1-44 (antibody, human IgG4 S228P, kappa, V domains shown)
# VH: QVQLQQSGTELAKPGASVKLSCKASGYTFTNYWMHWIKQRPGQGLEWIGYVHPTSDYTKYNQKFKDKATLTADKSSSTAYMQLNSLTYEDSAVYYCTRSSLYDTNYVFDSWGQGTTLTVSS
# VL: DILLTQSPAILSVSPGERVSFSCRASQSIGRSIHWFQQRTNGSPSLLIKYASESISGIPSRFSGGGSGTDFTLSISNVESEDIADYYCQQSNNWPFTFGSGTKLEIKR
# B14: LK-RB1-45 (antibody, human IgG4 S228P, kappa, V domains shown)
# VH: QVQLQQSGTELARPGASVKLSCKASGYTFTNFWMHWIKQRPGQGLEWIGYVNPTSDYTKYNQKFKDKATLTADKSSSTAYMQLNSLTYEDSAVYYCTRSSLYDTNYVFDSWGQGTTLTVSS
# VL: DILLTQSPAILSVSPGERVSFSCRASQSIGRSIHWYQQRTNGSPRLLIKYASESISGIPSRFSGGGSGTDFTLSISNVESEDIADYYCQQSNNWPFTFGSGTKLEIKR
# B15: LK-RB1-42 (antibody, human IgG4 S228P, kappa, V domains shown)
# VH: QVQLQQPGAELVKPGTSVKLSCKASGYSFISYWVYWVKQRPGQGLEWIGMIHPNSGSTNFNEKFRYKATLTVDKSSSTAYIQLSSLTSEDSAVYYCGRSDDGYPYHAMDSWGQGTSVTVSS
# VL: DIVMTQSQKFMSTSVGDRVSVTCKASQNVGTNVAWYQQKPGQSPKALIYSASYRFSGVPDRFTGSGSGTDFTLTIGNVQSEDLAEYFCHQYKNYPLTFGGGTKLEIKR
# B16: LK-RB1-43 (antibody, human IgG4 S228P, kappa, V domains shown)
# VH: EFQLQQSGPELMKPGASVKISCKASGYSFTDYNMNWVKQSNGKSLEWIGIIDPNYGTTTYNQKFKGRATLTVDQSSNTAYMQLNSLTSEDSAVYYCAREGRYSWFAYWGQGTLVTVSA
# VL: DIQMTQSPGALSVSVGETVTITCRASENINSNLAWYQQKQGKSPQLLVYAATNLADGVPSRFSGSGSGTQYSLKINSLQSEDFGSYHCQHFWGTPFTFGSGTKLEIKR
# B17: LK-RB1-24 (antibody, human IgG4 S228P, kappa, V domains shown)
# VH: QVQLQQPGAELVNPGTSVNLSCKASGYTFTGYWMHWVKQRPGQGLEWIGMIHPNNGGTIYNERFNGKATLTVDRSSTTAYIQLSSLTSEDSAVYYCAYWDLDYWGQGTTLTVSS
# VL: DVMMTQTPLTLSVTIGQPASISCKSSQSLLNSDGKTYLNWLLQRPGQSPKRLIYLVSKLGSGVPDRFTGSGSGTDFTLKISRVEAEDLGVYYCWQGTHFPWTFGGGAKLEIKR
# B18: LK-RB1-55 (antibody, human IgG4 S228P, kappa, V domains shown)
# VH: EVKLVESGGGLVQPGGSLKLSCAASGFTFSDYYMYWVRQTPEKRLEWVAYISNGGDITFYPDTVKGRFTISRDNARSTLYLQMSRLKSEDTAIYYCASATTEVGAMDHWGQGTSVTVSS
# VL: DIVMTQSQKFMSTTVGDRVSITCKASQNVGTAVAWYQQKPGKSPKLLIYAASNRYTGVPDRFTGSGSGTDFTLTISNMQSEDLADYFCQQYSSYRTFGGGTNLEIKR
# B19: LK-RB1-48 (antibody, human IgG4 S228P, kappa, V domains shown)
# VH: EVKLVESGGGLVQPGGSLKLSCAASGFTFSDYYMYWVRQTPEKRLEWVAYISNGGGISFYPDTVKGRFTISRDNAKNTLYLQMSRLKSEDTAIYYCASATKEVGAMDYWGQGTSVTVSS
# VL: DIVMTQSQKFLSTTVGDRVSITCKASQNVGTAVAWYQQKPGQSPKILIYSASNRYTGVPDRFTGSGSGTDFTLTISNMQSEDLADYFCQQYSSYRTFGGGTKLEIKR
# B20: LK-RB1-22 (antibody, human IgG4 S228P, kappa, V domains shown)
# VH: QVQLKESGPGLVAPSQSLSITCTVSGFSLTSYGVSWVRQPPGKGLEWLGIIWGDGNTNYHSALTSRLSISKDNSKSQVFLKLNSLRTDDTATYYCAKPHWDHYSMDYWGQGTSVTVSS
# VL: DIQMTQTTSSLSASLGDRVTISCRASQDISNFLNWYQQKPDGTVKLLIYYTSRLHSGAPSRFSGSGSGTDYSLTISNLDQEDIATYFCQQGNTLPLTFGAGTKLELKR
# B21: LK-RB1-26 (antibody, human IgG4 S228P, kappa, V domains shown)
# VH: QVQLKESGPGLVAPSQSLSITCTVSGFSLTSYGVSWVRQPPGKGLEWLGIIWGDGSTNYHSALISRLSISKDNSKSQVFLKLNSLQTDDTATYYCAKPNWDYYAMDYWGQGTSVTVSS
# VL: DIQMTQTTSSLSASLGDRVTISCRASQDISNFLNWYQQKPDGTFKLLISYTSTLHSGVPSRFSGSGSGTDYSLTISNLEQEDVATYFCQQGNTLPLTFGAGTKLALKR
# B22: LK-RB1-30 (antibody, human IgG4 S228P, kappa, V domains shown)
# VH: QVQLKESGPGLVAPSQSLSITCTVSGFSLTSYGVSWIRQPPGKGLEWLGVIWGDGNTNYHSALISRLSISKDNSKSQVFLKLNSLQTDDTATYYCAKPSWDYYAMDYWGQGTSVTVSS
# VL: VIQMTQTTSSLSASLGDRVTISCRASQDISNYVNWYQQRPDGTVKLLISYTSRLHSGVPSRFSGSGSGTDYSLTITNLEQEDIATYFCQQGITLPCTFGGGTKLEINR
# Target: T1, human LILRB1 (human, UniProt Q8NHL6 24-458, limits assumed)
# T1 construct: also called hLILRB1
# Assay: Octet off-rate ranking;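 also: antibody dissociation rate constants against cynomolgus LILRB2 plus human LILRB1, LILRB2, LILRA1 and LILRA2, measured on an Octet instrument to rank binding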
# From the text: Binding affinity of anti-LILRB1 and anti-LILRB2 antibodies against human LILRB1, LILRB2, LILRA1, LILRA2 and cynomolgus LILRB2 was ranked by measuring dissociation rate constant (Kdis) using the Octet system.
# T1 sequence (Q8NHL6 24-458 limits assumed): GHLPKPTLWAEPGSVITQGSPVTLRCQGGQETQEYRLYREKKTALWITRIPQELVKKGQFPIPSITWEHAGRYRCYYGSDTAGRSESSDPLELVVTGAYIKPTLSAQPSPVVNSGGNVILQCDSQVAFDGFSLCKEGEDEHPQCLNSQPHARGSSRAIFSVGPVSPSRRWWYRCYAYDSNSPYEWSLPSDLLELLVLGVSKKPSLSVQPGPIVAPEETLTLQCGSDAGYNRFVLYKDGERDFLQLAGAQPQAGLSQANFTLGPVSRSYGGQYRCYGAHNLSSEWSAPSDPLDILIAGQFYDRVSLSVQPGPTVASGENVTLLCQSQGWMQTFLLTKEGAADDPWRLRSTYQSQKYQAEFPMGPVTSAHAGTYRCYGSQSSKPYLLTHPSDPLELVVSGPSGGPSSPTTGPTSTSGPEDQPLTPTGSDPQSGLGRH
row,Binder,koff
1,B1,8.11e-05 s⁻¹
2,B2,0.000477 s⁻¹
3,B3,0.000112 s⁻¹
4,B4,6.28e-05 s⁻¹
5,B5,0.000739 s⁻¹
6,B6,3.66e-05 s⁻¹
7,B7,0.00116 s⁻¹
8,B8,0.000532 s⁻¹
9,B9,0.00121 s⁻¹
10,B10,9.03e-05 s⁻¹
11,B11,0.000222 s⁻¹
12,B12,3.91e-05 s⁻¹
13,B13,0.000559 s⁻¹
14,B14,0.000611 s⁻¹
15,B15,0.000139 s⁻¹
16,B16,0.000364 s⁻¹
17,B17,0.000987 s⁻¹
18,B18,< 1e-07 s⁻¹
19,B19,8.47e-06 s⁻¹
20,B20,0.000416 s⁻¹
21,B21,0.000155 s⁻¹
22,B22,6.05e-05 s⁻¹
